# In publication PMC11594918, “Kinetic Features of Degradation of R-Loops by RNase H1 from Escherichia coli”:
# Changes are numbered by the printed parent chain.
# T1: RNase H1 D10N (RH1 D10N) (Escherichia coli, UniProt P0A7Y4 1-155, D10N)
# T1 sequence: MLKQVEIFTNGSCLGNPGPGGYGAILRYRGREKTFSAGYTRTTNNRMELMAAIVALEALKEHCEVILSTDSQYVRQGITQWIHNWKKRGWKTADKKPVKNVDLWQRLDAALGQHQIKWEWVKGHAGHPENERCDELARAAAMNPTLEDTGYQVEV
# B1: R-loop 8 (mixed)
# DNA 1: ACTTGTAGCGATCTAAGGTCTTTTTTTTTTTTTTTTTTTTTTTTTTTTTGGCTCATTGCAGTAGAGTAGC
# DNA 2: GCTACTCTACTGCAATGAGTGCTTGATGGAGGGATGTGTAGTGGAATAGATACCTTAGATCGCTACAAGT
# RNA: CUCACAUCUAUUCCACUACACAUCCCUCCAUCAAGCA
# B2: R-loop 9 (mixed)
# DNA 1: ACTTGTAGCGATCTAAGGTCTTTTGGGTGGGTGGGTGGGTTTTTTTTTTGGCTCATTGCAGTAGAGTAGC
# DNA 2: B1 DNA 2
# RNA: B1 RNA
# B3: R-loop 7 (mixed)
# DNA 1: ACTTGTAGCGATCTAAGGTCTTTTTTTTTTTTTTTTTTTGGCTCATTGCAGTAGAGTAGC
# DNA 2: GCTACTCTACTGCAATGAGCTGGGATGTGTAGTGGAATAGAACCTTAGATCGCTACAAGT
# RNA: CUCACAUCUAUUCCACUACACAUCCCA
# B4: R-loop 6 (mixed)
# DNA 1: ACTTGTAGCGATCTAAGGTCTTTTTTTTTTTTTTGGCTCATTGCAGTAGAGTAGC
# DNA 2: GCTACTCTACTGCAATGAGCTGCTCTCTGGACTCGAACCTTAGATCGCTACAAGT
# RNA: CUCACAUCGAGUCCAGAGAGCA
# B5: R-loop 1 (mixed)
# DNA 1: ACTTGTAGCGATCTAAGGTCTTTTTTTTTGGCTCATTGCAGTAGAGTAGC
# DNA 2: GCTACTCTACTGCAATGAGCTGCTCTCTGGAACCTTAGATCGCTACAAGT
# RNA: CUCACAUCCAGAGAGCA
# B6: R-loop 3 (mixed)
# DNA 1: B5 DNA 1 with G31C
# DNA 2: B5 DNA 2
# RNA: CUCACAUCCAGAGAGCA
# B7: R-loop 2 (mixed)
# DNA 1: B5 DNA 1 with G30A
# DNA 2: B5 DNA 2
# RNA: CUCACAUCCAGAGAGCA
# Columns and labels:
# [1] = target: T1, RNase H1 D10N (RH1 D10N); test: MST; 10 mM Mg2+; saturation not reached, low limit estimate; MST: 40 mM Tris-HCl pH 7.9, 40 mM KCl, 10 mM MgCl2, 25 C; R-loop 0.5 uM, RH1 D10N 0.05-30 uM (RNAP MST conditions not stated separately); conditions: protein: recombinant, tags: N-terminal 6xHis, label: 5'-FAM on RNA, three strands 1:1:1, bubble
# [2] = target: T1, RNase H1 D10N (RH1 D10N); test: MST; 10 mM Mg2+; MST: 40 mM Tris-HCl pH 7.9, 40 mM KCl, 10 mM MgCl2, 25 C; R-loop 0.5 uM, RH1 D10N 0.05-30 uM (RNAP MST conditions not stated separately); conditions: protein: recombinant, tags: N-terminal 6xHis, label: 5'-FAM on RNA, bubble
# [3] = target: RNA polymerase (RNAP) (Escherichia coli, UniProt P0A7Z4;P0A8V2;P0A8T7;P0A800 1-329;1-1342;1-1407;2-91); test: MST; MST: 40 mM Tris-HCl pH 7.9, 40 mM KCl, 10 mM MgCl2, 25 C; R-loop 0.5 uM, RH1 D10N 0.05-30 uM (RNAP MST conditions not stated separately); conditions: protein: recombinant; tags: N-terminal His (pVS10 plasmid); chain copies: 2;1;1;1; label: 5'-FAM on RNA; three strands 1:1:1 (nontemplate DNA, template DNA, RNA); bubble; 11 bp hybrid
# [4] = three strands 1:1:1, 10-11 nt hybrid
# Sequence of RNA polymerase (RNAP) (P0A7Z4 whole entry, chain 1 of 4): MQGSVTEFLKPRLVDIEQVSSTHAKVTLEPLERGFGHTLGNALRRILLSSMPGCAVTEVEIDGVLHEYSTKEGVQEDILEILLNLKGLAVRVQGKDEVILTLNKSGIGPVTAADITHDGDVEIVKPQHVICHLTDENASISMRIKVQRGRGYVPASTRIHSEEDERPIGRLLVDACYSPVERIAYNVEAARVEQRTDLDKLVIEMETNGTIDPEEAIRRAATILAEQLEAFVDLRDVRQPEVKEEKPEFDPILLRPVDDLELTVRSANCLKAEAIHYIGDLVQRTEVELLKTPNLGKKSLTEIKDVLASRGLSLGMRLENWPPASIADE
# Sequence of RNA polymerase (RNAP) (P0A8V2 whole entry, chain 2 of 4): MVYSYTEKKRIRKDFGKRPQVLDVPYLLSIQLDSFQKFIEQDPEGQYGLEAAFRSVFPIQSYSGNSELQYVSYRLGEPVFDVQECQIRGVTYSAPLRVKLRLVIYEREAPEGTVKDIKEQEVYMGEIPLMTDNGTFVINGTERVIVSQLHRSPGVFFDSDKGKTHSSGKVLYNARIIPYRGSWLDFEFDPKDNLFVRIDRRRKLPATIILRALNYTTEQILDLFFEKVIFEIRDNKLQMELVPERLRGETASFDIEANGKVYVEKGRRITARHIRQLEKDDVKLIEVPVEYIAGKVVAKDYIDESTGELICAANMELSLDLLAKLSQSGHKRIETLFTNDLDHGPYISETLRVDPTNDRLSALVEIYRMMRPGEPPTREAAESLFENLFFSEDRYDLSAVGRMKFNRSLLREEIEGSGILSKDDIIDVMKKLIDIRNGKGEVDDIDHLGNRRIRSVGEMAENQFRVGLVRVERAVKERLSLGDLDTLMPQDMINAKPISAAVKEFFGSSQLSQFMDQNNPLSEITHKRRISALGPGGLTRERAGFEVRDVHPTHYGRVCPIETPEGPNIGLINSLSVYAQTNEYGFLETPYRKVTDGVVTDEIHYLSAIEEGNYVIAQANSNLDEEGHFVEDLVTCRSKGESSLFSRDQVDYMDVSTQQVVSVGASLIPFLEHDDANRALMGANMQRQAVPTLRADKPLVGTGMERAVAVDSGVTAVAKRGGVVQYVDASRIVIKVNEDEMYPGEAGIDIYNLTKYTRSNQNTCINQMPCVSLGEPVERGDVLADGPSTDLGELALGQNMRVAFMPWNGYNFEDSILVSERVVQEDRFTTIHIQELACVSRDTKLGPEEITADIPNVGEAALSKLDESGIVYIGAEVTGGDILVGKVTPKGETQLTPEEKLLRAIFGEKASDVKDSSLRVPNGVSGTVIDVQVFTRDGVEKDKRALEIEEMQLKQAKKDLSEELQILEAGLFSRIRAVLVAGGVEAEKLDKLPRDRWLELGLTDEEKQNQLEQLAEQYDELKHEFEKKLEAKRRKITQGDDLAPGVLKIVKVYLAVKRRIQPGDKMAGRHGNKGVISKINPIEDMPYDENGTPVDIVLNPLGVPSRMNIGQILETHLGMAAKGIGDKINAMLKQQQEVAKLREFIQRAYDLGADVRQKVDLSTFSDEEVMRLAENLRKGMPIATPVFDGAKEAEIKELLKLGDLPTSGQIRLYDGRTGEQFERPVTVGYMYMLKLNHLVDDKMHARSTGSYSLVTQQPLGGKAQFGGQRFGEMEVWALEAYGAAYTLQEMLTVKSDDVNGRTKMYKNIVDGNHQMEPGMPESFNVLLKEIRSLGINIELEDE
# Sequence of RNA polymerase (RNAP) (P0A8T7 whole entry, chain 3 of 4): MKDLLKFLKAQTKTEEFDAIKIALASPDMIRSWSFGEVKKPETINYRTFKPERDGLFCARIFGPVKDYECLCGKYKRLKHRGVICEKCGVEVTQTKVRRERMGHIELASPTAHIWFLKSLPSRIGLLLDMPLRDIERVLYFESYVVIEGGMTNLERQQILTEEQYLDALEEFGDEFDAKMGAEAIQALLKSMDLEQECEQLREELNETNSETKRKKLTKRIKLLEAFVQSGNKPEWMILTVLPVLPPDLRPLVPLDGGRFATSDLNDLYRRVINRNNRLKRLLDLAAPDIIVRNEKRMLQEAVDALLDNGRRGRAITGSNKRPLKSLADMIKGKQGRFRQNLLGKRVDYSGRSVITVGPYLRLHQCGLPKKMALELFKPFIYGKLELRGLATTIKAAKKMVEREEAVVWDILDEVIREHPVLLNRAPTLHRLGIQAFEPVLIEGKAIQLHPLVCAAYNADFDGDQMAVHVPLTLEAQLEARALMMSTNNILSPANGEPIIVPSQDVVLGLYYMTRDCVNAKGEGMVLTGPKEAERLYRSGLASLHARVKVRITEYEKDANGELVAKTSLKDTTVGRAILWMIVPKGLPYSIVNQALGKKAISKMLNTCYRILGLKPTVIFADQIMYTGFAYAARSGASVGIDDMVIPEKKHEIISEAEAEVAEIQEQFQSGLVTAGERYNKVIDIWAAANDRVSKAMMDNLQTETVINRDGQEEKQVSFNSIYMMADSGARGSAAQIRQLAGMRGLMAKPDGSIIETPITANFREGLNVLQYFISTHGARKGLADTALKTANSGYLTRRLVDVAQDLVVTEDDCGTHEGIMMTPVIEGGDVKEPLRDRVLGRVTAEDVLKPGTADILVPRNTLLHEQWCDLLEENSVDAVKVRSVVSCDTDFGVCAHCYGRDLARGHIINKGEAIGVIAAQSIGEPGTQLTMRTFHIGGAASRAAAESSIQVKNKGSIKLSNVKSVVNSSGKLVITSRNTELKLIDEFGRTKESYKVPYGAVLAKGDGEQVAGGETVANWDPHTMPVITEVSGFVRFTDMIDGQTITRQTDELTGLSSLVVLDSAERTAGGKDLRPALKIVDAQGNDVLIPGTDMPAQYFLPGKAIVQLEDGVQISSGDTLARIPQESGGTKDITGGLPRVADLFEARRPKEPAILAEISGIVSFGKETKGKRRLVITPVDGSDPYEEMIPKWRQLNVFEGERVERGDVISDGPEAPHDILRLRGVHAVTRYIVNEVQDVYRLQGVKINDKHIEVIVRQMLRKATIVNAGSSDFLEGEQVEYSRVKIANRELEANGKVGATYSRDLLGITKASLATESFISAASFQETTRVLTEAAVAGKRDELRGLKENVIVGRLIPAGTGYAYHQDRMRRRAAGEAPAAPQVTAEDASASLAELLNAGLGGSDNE
# Sequence of RNA polymerase (RNAP) (P0A800 2-91, chain 4 of 4): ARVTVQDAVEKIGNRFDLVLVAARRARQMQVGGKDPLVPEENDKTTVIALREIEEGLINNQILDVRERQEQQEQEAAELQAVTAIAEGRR
binder,measurement,setting,value
B1,Kd,[1]; extended hybrid,~9.3 µM
B2,Kd,"[1]; extended hybrid, G4 in nontemplate DNA (annealed in 140 mM KCl)",~5.1 µM
B3,Kd,[1]; extended hybrid,~6.7 µM
B4,Kd,[1]; 16 nt hybrid,~9.7 µM
B5,Kd,"[2]; three strands 1:1:1 (nontemplate DNA, template DNA, RNA), 11 bp hybrid",1200 ± 400 nM
same,Kd,[3],300 ± 100 nM
B6,Kd,[2]; [4],1500 ± 400 nM
B7,Kd,[2]; [4],1100 ± 400 nM
